{"source": "patent US20240018213A1", "about": "(OHIO STATE INNOVATION FOUNDATION, published 2024)", "key": {"mNotch1ECD-Fc [1]": {"molecular_target": "T1, mNotch1ECD-Fc (mouse, UniProt Q01705 19-1725)", "T1 construct": "extracellular domain; Immobilized on the SPR chip; also called mouse full length notch extracellular domain; not shown: Fc part", "T1 sequence (Q01705 19-1725)": "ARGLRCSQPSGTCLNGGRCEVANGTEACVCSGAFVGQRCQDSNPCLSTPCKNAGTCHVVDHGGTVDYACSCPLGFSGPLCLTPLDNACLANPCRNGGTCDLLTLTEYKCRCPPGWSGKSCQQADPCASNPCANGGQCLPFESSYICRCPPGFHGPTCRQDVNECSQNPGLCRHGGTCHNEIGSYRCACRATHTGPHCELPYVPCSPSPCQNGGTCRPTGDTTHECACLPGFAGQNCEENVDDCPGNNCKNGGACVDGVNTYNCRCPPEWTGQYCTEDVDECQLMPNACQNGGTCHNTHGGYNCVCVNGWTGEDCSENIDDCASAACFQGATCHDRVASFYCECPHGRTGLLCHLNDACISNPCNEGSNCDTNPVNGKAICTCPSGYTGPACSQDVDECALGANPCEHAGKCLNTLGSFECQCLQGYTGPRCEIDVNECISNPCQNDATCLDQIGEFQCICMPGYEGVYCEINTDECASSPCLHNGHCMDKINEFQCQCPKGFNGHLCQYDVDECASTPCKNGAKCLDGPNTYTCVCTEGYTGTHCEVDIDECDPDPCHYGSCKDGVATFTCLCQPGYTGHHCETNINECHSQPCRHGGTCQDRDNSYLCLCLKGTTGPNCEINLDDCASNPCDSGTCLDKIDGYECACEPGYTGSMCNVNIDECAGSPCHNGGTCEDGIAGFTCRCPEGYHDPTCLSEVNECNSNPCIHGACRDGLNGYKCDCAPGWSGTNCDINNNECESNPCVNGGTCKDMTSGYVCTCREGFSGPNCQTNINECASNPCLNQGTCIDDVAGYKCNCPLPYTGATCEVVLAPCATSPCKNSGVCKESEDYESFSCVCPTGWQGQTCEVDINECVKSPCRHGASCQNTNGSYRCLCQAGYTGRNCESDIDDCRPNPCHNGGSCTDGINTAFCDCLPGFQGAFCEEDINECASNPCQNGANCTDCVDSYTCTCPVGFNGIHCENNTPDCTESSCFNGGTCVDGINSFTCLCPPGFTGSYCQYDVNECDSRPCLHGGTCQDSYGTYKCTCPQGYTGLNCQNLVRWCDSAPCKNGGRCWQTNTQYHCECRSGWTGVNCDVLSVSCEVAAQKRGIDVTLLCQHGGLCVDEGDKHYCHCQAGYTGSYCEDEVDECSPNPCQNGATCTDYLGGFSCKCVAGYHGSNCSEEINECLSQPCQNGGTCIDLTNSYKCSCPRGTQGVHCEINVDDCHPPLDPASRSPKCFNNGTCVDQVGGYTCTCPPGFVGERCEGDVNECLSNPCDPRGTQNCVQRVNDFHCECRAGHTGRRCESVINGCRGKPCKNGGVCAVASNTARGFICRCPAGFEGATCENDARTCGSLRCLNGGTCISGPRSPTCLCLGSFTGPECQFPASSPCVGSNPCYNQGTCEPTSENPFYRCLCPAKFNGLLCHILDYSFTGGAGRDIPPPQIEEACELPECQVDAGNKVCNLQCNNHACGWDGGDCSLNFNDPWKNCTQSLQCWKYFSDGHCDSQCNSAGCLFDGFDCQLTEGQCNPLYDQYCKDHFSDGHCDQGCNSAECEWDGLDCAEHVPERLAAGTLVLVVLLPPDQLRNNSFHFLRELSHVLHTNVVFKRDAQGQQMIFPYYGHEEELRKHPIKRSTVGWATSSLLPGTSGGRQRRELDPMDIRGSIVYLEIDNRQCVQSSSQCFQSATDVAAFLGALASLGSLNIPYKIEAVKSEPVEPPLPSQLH", "test": "SPR (open SPR), mNotch1ECD-Fc immobilized, Tan 6 injected at 2.2, 0.45, 0.22, 0.11 and 0 µM; apparent KD", "experimental": "(§1) FIG. 25. Open surface plasmon resonance (SPR) binding experiments of DLL1 Tandem 6× against immobilized mouse full length notch extracellular domain (Top) and BSA negative control (bottom). DLL1 Tandem 6× was injected at concentrations of 2.2 μM, 0.45 μM, 0.22 μM, 0.11 μM, and 0 μM (HBS buffer only). Signal to noise of these binding experiments were 3 to 1.\n(§2) The signal:noise of binding to Notch1 versus BSA is about 3:1 at the same concentrations."}, "mNotch1ECD-Fc [2]": {"molecular_target": "T1, mNotch1ECD-Fc", "test": "SPR, signal on immobilized mNotch1ECD-Fc against immobilized BSA negative control at the same Tan 6 concentrations", "experimental": "as §1, §2"}}, "data": [{"binder": "MuDLL1.DSL-EGF12.Tan 6 (NL 99) (ligand, also called DLL1 Tandem 6×; hexamer) MAAHHHHHHGGENLYFQGFVCDEHYYGEGCSVFCRPRDDAFGHFTCGDRGEKMCDPGWKGQYCTDPICLPGCDDQHGYCDKPGECKCRVGWQGRYCDECIRYPGCLHGTCQQPWQCNCQEGWGGLFCNQGSSGSSGFVCDEHYYGEGCSVFCRPRDDAFGHFTCGDRGEKMCDPGWKGQYCTDPICLPGCDDQHGYCDKPGECKCRVGWQGRYCDECIRYPGCLHGTCQQPWQCNCQEGWGGLFCNQGSSGSSGFVCDEHYYGEGCSVFCRPRDDAFGHFTCGDRGEKMCDPGWKGQYCTDPICLPGCDDQHGYCDKPGECKCRVGWQGRYCDECIRYPGCLHGTCQQPWQCNCQEGWGGLFCNQGSSGSSGFVCDEHYYGEGCSVFCRPRDDAFGHFTCGDRGEKMCDPGWKGQYCTDPICLPGCDDQHGYCDKPGECKCRVGWQGRYCDECIRYPGCLHGTCQQPWQCNCQEGWGGLFCNQGSSGSSGFVCDEHYYGEGCSVFCRPRDDAFGHFTCGDRGEKMCDPGWKGQYCTDPICLPGCDDQHGYCDKPGECKCRVGWQGRYCDECIRYPGCLHGTCQQPWQCNCQEGWGGLFCNQGSSGSSGFVCDEHYYGEGCSVFCRPRDDAFGHFTCGDRGEKMCDPGWKGQYCTDPICLPGCDDQHGYCDKPGECKCRVGWQGRYCDECIRYPGCLHGTCQQPWQCNCQEGWGGLFCNQ", "values": [{"measurement": "Kd", "setting": "mNotch1ECD-Fc [1]", "result": 1500, "unit": "nM"}, {"measurement": "signal:noise of binding to Notch1 versus BSA", "setting": "mNotch1ECD-Fc [2]", "result": "~3 ratio (Notch1 : BSA)"}]}]}
